According to PMC6879491 (Nature Communications, 2019):
One block for each binder: values may come before it.

Legend:
Experiment in all cases: cell-bound Gaussia luciferase activity (equilibrium binding on intact cells); Jurkat (CD3, CD45) or U266 (HLA-A2) cells, 1 h at 37 °C with increasing concentrations of GpL fusion proteins, washed five times with ice-cold PBS; specific binding = total minus non-specific
Settings in all cases: partners not purified
[1] = target: T1, CD45 on cells (Homo sapiens (Jurkat, THP-1), UniProt P08575)
T1 construct: CD45 on the surface of human cell lines; also called pan-hematopoietic lineage marker CD45; source: on THP-1 cells (functional assays)
T1 sequence (P08575 26-1306): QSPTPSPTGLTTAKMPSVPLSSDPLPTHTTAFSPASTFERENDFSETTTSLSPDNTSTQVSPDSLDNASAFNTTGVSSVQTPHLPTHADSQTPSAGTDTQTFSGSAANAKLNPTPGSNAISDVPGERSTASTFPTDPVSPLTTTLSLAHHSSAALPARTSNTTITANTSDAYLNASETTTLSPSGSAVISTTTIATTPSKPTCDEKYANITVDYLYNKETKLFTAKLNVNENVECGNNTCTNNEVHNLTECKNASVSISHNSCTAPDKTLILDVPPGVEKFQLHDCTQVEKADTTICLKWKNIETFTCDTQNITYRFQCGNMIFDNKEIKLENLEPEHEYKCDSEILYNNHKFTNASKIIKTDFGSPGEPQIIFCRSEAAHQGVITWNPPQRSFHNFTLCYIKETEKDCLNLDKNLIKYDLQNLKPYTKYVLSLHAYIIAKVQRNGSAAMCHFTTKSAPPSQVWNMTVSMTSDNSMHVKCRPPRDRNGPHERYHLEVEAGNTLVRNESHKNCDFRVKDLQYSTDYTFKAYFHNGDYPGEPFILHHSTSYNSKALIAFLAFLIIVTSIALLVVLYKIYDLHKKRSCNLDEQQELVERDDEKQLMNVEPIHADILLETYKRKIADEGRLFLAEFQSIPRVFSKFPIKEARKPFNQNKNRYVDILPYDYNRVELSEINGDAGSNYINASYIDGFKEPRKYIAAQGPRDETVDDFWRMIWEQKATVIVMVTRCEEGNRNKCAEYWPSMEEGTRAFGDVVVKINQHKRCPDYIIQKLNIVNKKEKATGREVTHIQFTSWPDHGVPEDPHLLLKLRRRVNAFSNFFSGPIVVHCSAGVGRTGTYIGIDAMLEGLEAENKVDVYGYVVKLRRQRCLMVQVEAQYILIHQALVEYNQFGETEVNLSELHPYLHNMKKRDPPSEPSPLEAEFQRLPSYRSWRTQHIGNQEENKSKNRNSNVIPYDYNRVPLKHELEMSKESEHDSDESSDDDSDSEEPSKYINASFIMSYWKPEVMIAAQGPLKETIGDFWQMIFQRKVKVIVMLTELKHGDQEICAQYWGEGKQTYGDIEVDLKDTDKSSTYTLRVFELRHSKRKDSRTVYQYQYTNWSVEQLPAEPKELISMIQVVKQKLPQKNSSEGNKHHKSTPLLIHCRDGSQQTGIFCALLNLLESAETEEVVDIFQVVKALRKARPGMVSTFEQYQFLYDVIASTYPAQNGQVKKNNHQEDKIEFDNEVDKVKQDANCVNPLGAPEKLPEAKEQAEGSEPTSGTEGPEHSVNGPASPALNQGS

[2] = target: T2, HLA-A2 on cells (Homo sapiens, HLA-A*02:01 (allele …, strain))
T2 construct: HLA-A2 on the surface of HLA-A2-positive human cell lines; source: on THP-1 cells (functional assays)

[3] = target: T3, CD3 on Jurkat cells (Homo sapiens (Jurkat, donor T cells), UniProt P07766)
T3 construct: CD3ε, the chain addressed by the diL2K scFv, on the surface of CD3-positive cells; On cells CD3ε stands within the TCR-CD3 complex; also called CD3ε; CD3 antigen; source: on donor T cells (functional assays)

Kd [1]: 11.8 nM
B1: scFvαCD45-GpL (scFv, V domains shown)
VH: QVQLVESGGGLVQPGGSLKLSCAASGFDFSRYWMSWVRQAPGKGLEWIGEINPTSSTINFTPSLKDKVFISRDNAKNTLYLQMSKVRSEDTALYYCARGNYYRYGDAMDYWGQGTSVTVSG
VL: DIVLTQSPASLAVSLGQRATISCRASKSVSTSGYSYLHWYQQKPGQPPKLLIYLASNLESGVPARFSGSGSGTDFTLNIHPVEEEDAATYYCQHSRELPFTFGSGTKLEIK
notes: as the scFv of m2 (GenBank MN432904); Expression plasmid pCR3; also called scFvCD45-GpL; anti-CD45 scFv fused to Gaussia princeps luciferase; source: Hek293, electroporated, secreted, in supernatant

Kd [2]: 0.9 nM
B2: scFvαHLA-A2-GpL (scFv, V domains shown)
VH: QVQLVQSGGGVVQPGGSLRVSCAASGVTLSDYGMHWVRQAPGKGLEWMAFIRNDGSDKYYADSVKGRFTISRDNSKKTVSLQMSSLRAEDTAVYYCAKNGESGPLDYWYFDLWGRGTLVTVSS
VL: DVVMTQSPSSLSASVGDRVTITCQASQDISNYLNWYQQKPGKAPKLLIYDASNLETGVPSRFSGSGSGTDFTFTISSLQPEDFATYYCQQYSSFPLTFGGGTKVDIK
notes: scFv of the human anti-HLA-A2/A28 antibody clone 3PF12 (VH GenBank AF163307, VL GenBank AF163308); as the scFv of m1 (GenBank MN432902); Expression plasmid pCR3; also called scFvHLA-A2-GpL; anti-HLA-A2 scFv fused to Gaussia princeps luciferase; source: Hek293, electroporated, secreted, in supernatant

Kd [3]: 11.1 nM
B3: scFvαCD3-GpL (scFv, V domains shown)
VH: DVQLVQSGAEVKKPGASVKVSCKASGYTFTRYTMHWVRQAPGQGLEWIGYINPSRGYTNYADSVKGRFTITTDKSTSTAYMELSSLRSEDTATYYCARYYDDHYCLDYWGQGTTVTVSS
VL: DIVLTQSPATLSLSPGERATLSCRASQSVSYMNWYQQKPGKAPKRWIYDTSKVASGVPARFSGSGSGTDYSLTINSLEAEDAATYYCQQWSSNPLTFGGGTKVEIK
notes: scFv of the anti-CD3ε antibody diL2K (de-immunized version of mouse monoclonal L2K); as the anti-CD3 scFv of m3 (GenBank MN432903); Expression plasmid pCR3; also called scFvCD3-GpL; anti-CD3 scFv fused to Gaussia princeps luciferase; source: Hek293, electroporated, secreted, in supernatant
